Data taken from the supplement of paper PMC9732359.
± gives the uncertainty stated by the source.

Test: protein stability index of a GFP-peptide fusion (yeast GPS) (PSI 1-4); higher = more stable; sorted into four equal gates, so the index is relative within each strain
Outline: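 Mid-log yeast cultures in leucine-free medium, carrying a pooled plasmid library, were sorted into four equal gates by their GFP/Cherry fluorescence ratio. Each plasmid expressed Cherry along with GFP fused upstream of a tiled 17-residue yeast protein peptide. Plasmids recovered from each gate were PCR-amplified and Illumina-sequenced, with reads assigned to strains by barcodes. The protein stability index was obtained by summing each gate's read frequency weighted by its gate number.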

| Sequence | protein stability index (doa10∆) | protein stability index (pdr5∆) | protein stability index (san1∆) | protein stability index (ubr1∆) |
| --- | --- | --- | --- | --- |
| LSRPSLPKIKTVRKSIA [RPL35A] | 1.54 ± 0.06 | 1.94 ± 0.073 | 2.31 ± 0.059 | 1.85 ± 0.054 |
| EKLLKELENNEFTENEL [ITC1] | 3.43 ± 0.074 | 3.21 ± 0.078 | 3.33 ± 0.069 | 3.33 ± 0.097 |
| MKRADKFKDMGIRAPKG [RPT5] | 2.89 ± 0.1 | 3.38 ± 0.16 | 2.98 ± 0.13 | 3.3 ± 0.12 |
| VGEKLVVVVLEEPSASI [SIR3] | 3.07 ± 0.076 | 2.94 ± 0.087 | 3.2 ± 0.052 | 3.1 ± 0.13 |
| ISFAIYSALNSTYLPKL [RRP42] | 2.1 ± 0.054 | 2.3 ± 0.048 | 2.05 ± 0.058 | 2.34 ± 0.039 |
| RAQHVKKLATRPKCGDC [RPL34A] | 3.06 ± 0.14 | 3.06 ± 0.12 | 2.69 ± 0.11 | 3.13 ± 0.084 |
| HVIQIPLNKPLLTEELA [TAF14] | 2.2 ± 0.053 | 2.39 ± 0.037 | 2.49 ± 0.053 | 2.32 ± 0.039 |
| LEDMVFPTEIVGKRVRY [RPS7B] | 1.57 ± 0.16 | 1.76 ± 0.088 | 2.5 ± 0.21 | 2.69 ± 0.055 |
| EDTLSGYDPIVSTRAID [PRP28] | 2.51 ± 0.2 | 2.67 ± 0.12 | 3.13 ± 0.15 | 3.16 ± 0.093 |
| AKKTSTSTDGKKRSKAR [HTB1] | 3.2 ± 0.25 | 3.12 ± 0.17 | – | – |
| LETEQLSSELDSNKTLL [SMC2] | 3.35 ± 0.071 | 3.32 ± 0.082 | 3.26 ± 0.05 | 3.31 ± 0.049 |
| TSVIQDLSEKILNDIET [BRR2] | 2.89 ± 0.1 | 3.3 ± 0.11 | 3.21 ± 0.061 | 3.09 ± 0.076 |
| NQQQQNQQPQQQQQQQQ [SWI1] | 3.06 ± 0.049 | 2.93 ± 0.037 | 2.88 ± 0.03 | 2.83 ± 0.032 |
| DRTMLAPMDFAIVVGWR [FAS1] | 2.49 ± 0.075 | 2.43 ± 0.062 | 2.68 ± 0.062 | 1.77 ± 0.041 |
| QQQQIQVPLQQTQAIAQ [YGR119C/NUP57] | 2.61 ± 0.061 | 2.82 ± 0.048 | 2.88 ± 0.039 | 2.885 ± 0.028 |
| NAVTAAAANNNIKPVEQ [GAL11] | 2.66 ± 0.064 | 2.66 ± 0.051 | 2.77 ± 0.062 | 2.84 ± 0.039 |
| EGSTIRYLAVTLQDIGF [YMR129W/POM152] | 2.5 ± 0.048 | 2.58 ± 0.04 | 2.52 ± 0.052 | 2.71 ± 0.041 |
| FTSAPIEVTIGIDQYSF [AAR2] | 1.52 ± 0.09 | 1.93 ± 0.086 | 1.53 ± 0.12 | 1.64 ± 0.082 |
| KNRRRIHGELKTYKEGI [SMC1] | 3.23 ± 0.13 | 3.35 ± 0.062 | 3.17 ± 0.095 | 3.18 ± 0.054 |
| AADILCELQVETYGSME [RPN5] | 3.15 ± 0.1 | 3.34 ± 0.075 | 3.27 ± 0.1 | 3.18 ± 0.23 |
| GLTTVWLLSALGNSIVK [REC8] | 1.61 ± 0.085 | 2.31 ± 0.075 | 2.13 ± 0.14 | 1.77 ± 0.12 |
| IDLCHDFPHLTPKLQTQ [YCS4] | 2.6 ± 0.042 | 2.65 ± 0.038 | 2.63 ± 0.042 | 2.49 ± 0.035 |
| IAIIKDTSDIIVDPTAE [RRP46] | 1.86 ± 0.044 | 1.92 ± 0.047 | 1.71 ± 0.078 | 1.61 ± 0.046 |
| VHVQLLINLKISPLMKS [SRB8] | 1.44 ± 0.058 | 1.59 ± 0.048 | 1.55 ± 0.091 | 1.44 ± 0.05 |
| LNAKYQSLGLDDLQKFN [ISW2] | 3.03 ± 0.066 | 3 ± 0.061 | 2.74 ± 0.049 | 2.7 ± 0.044 |
| VGGQFSKVQFDAKTSYP [REC8] | 3.19 ± 0.095 | 3.17 ± 0.094 | 3 ± 0.077 | 3.19 ± 0.055 |
| KQINHQGEEEELIALNL [RPB4] | 3.34 ± 0.15 | 3.59 ± 0.13 | 3.2 ± 0.076 | 3.42 ± 0.11 |

| Sequence | protein stability index (doa10∆) | protein stability index (pdr5∆) | protein stability index (san1∆) | protein stability index (ubr1∆) |
| --- | --- | --- | --- | --- |
| DRRKARKAYFTAPSSER [RPL26B] | 2.77 ± 0.17 | 2.72 ± 0.16 | 3.12 ± 0.082 | 3.1 ± 0.14 |
| QIPTVSSPLGFEETKLS [SIR4] | 3.06 ± 0.12 | 3.05 ± 0.17 | 2.63 ± 0.14 | 2.9 ± 0.081 |
| PTTTTGGLFGNSAQNNS [YGR119C/NUP57] | 3.11 ± 0.071 | 3.18 ± 0.097 | 3 ± 0.062 | 3.24 ± 0.054 |
| STPENVPRLFDLVKPKN [SMC4] | 2.65 ± 0.077 | 3.11 ± 0.087 | 2.65 ± 0.12 | 2.81 ± 0.053 |
| QRQYKVQLLLHINSILL [SNF11] | 1.88 ± 0.082 | 1.84 ± 0.061 | 1.89 ± 0.098 | 1.96 ± 0.057 |
| TPPVVVVGVVGYVETPR [RPL3] | 1.81 ± 0.086 | 2.33 ± 0.068 | 1.46 ± 0.072 | 2.86 ± 0.17 |
| GQLGLDDNDVPGPLPDT [YLR018C/POM34] | 3.27 ± 0.2 | 2.94 ± 0.14 | 2.37 ± 0.23 | – |
| LINIDTSIANAFRRIMI [RPC40] | 2.28 ± 0.043 | 2.83 ± 0.054 | 3.14 ± 0.046 | 2.89 ± 0.049 |
| VEFNRKVVIPNLLCYYN [RPN3] | – | 1.67 ± 0.22 | – | – |
| LSGVSNSMDMVDGMAKV [RGR1] | 3.48 ± 0.11 | 3.29 ± 0.11 | 3.44 ± 0.13 | 3.34 ± 0.064 |
| LHKRLHGVSFKKRAPRA [RPL31A] | 2.9 ± 0.12 | 2.73 ± 0.13 | 3 ± 0.16 | 3.17 ± 0.11 |
| TSSIFQESFNSVQNLDQ [NUT1] | 3.16 ± 0.086 | 2.64 ± 0.057 | 2.98 ± 0.048 | 3.14 ± 0.054 |
| FLSSFDDVLQTIITDCA [YJL039C/NUP192] | 2.43 ± 0.045 | 2.07 ± 0.049 | 2.03 ± 0.062 | 2.38 ± 0.034 |
| VEILFEAGASAELDDCR [RPO21] | 2.94 ± 0.14 | 3.44 ± 0.15 | 2.93 ± 0.074 | 3.49 ± 0.16 |
| YPLWVMAKQLIRLANES [CSN12] | 2.08 ± 0.07 | 1.41 ± 0.047 | 1.34 ± 0.17 | 1.4 ± 0.059 |
| VSPAFRVQVGDIVTVGQ [RPS11A] | 2.49 ± 0.091 | 2.96 ± 0.093 | 2.55 ± 0.14 | 2.42 ± 0.078 |
| DDSFFNETNDKKRNPSK [PRP28] | 3.16 ± 0.098 | 2.96 ± 0.1 | 3.13 ± 0.072 | 2.85 ± 0.084 |
| IAFASNYGIVELDPECQ [RRP43] | 2.34 ± 0.083 | 2.68 ± 0.055 | 2.54 ± 0.059 | 2.53 ± 0.08 |
| SVMPPNEVYSAYVVNDT [DLS1] | 2.77 ± 0.087 | 2.95 ± 0.13 | 1.89 ± 0.28 | 3.04 ± 0.082 |
| IKFFWNNTHVGRQFCNR [YLR018C/POM34] | – | 1.68 ± 0.14 | 1.74 ± 0.27 | 1.9 ± 0.1 |
| LTLDPRYIWRSLKDLSS [RPN3] | 2.78 ± 0.14 | 2.39 ± 0.29 | 2.82 ± 0.097 | – |
| AELDPSLRTPIAPKITP [SEC65] | 3.06 ± 0.1 | 3.05 ± 0.058 | 3 ± 0.082 | 3.13 ± 0.055 |
| TVEALDFREKALYIAMM [RET1] | 2.73 ± 0.1 | 3.03 ± 0.096 | 3.29 ± 0.076 | 2.59 ± 0.082 |
| MSACVGQQSVEGKRIAF [RPO21] | 2.27 ± 0.26 | 1.97 ± 0.16 | 1.62 ± 0.24 | 2.63 ± 0.24 |
| SGGEREIQRTMLELLNQ [RPT2] | 3.46 ± 0.15 | 3.74 ± 0.2 | – | 3.15 ± 0.18 |
| KDQALIGTINSIVHINS [SIR2] | 1.69 ± 0.035 | 1.66 ± 0.032 | 1.75 ± 0.049 | 1.41 ± 0.027 |
